Where “and” joins values, the source holds several entries; their conditions need not be identical. Identical values can stand only once. Like-named read-outs stand apart in the source and are kept apart here.
Tests used:
[1] = biological target: T1, human complement factor D purified from serum (human, UniProt P00746 26-253); as to CFD Enzymatic activity (% of Neg Ctrl): test concentration or dose not given here
T1 construct: serum-purified (CompTech); also called hCFD-Comptech; CFD

[2] = biological target: T1, human complement factor D purified from …; test: SPR MX96
[3] = biological target: T2, recombinant human CFD, His-tagged (human, UniProt P00746 26-253); test: SPR MX96
T2 construct: also called rhCFD-His
T2 sequence (P00746 26-253 limits assumed): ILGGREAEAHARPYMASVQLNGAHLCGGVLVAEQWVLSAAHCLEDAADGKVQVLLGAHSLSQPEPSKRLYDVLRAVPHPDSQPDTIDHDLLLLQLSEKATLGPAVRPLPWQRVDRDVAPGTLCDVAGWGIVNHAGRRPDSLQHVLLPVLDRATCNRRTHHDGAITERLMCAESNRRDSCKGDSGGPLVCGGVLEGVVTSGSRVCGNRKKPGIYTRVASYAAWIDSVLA

[4] = biological target: T3, recombinant cynomolgus CFD, His-tagged (cynomolgus); test: SPR MX96
T3 construct: also called rcyCFD-His; recombinant Cyno-CFD

[5] = biological target: T1, human complement factor D purified from …; test: cell-based or functional assay
[6] = biological target: human Complement Factor D (serum purified) (human, UniProt P00746 26-253); test: cell-based or functional assay
Chain of human Complement Factor D (serum purified) (P00746 26-253): as the sequence (P00746 26-253 limits assumed) above

[7] = biological target: T4, serum purified human Complement Factor D (human, UniProt P00746 26-253); test: SPR Biacore, antibody on protein A chip, single cycle kinetics, 25 C
T4 construct: Serum purified protein flowed over the captured antibodies; also called CFD; human CFD
T4 sequence (P00746 26-253): as the sequence (P00746 26-253 limits assumed) above

[8] = biological target: T4, serum purified human Complement Factor D; test: SPR Biacore, antibody on protein A chip, single cycle kinetics, 37 C
[9] = biological target: T4, serum purified human Complement Factor D; test: SPR Biacore, antibody on protein A chip, single cycle kinetics, 25 C; remark: listed apart in the source
[10] = biological target: T4, serum purified human Complement Factor D; test: SPR Biacore, antibody on protein A chip, single cycle kinetics, 37 C; remark: listed apart in the source
[11] = biological target: T4, serum purified human Complement Factor D; test: SPR Biacore, 37 C
[12] = biological target: T4, serum purified human Complement Factor D; test: SPR Biacore, 25 C

T1 sequence (P00746 26-253): as the sequence (P00746 26-253 limits assumed) above

B1: KCD119 (antibody, V domains shown)
VH: EVQLQQSGPELVKPGASVKISCKASGYTFTDYYTNWMRQRHGESLEWIGDINPNTGDTSYNQKFRVKATLTVDKSSGTAYMGLRSLTSEDSAVYYCTREGPSFAYWGQGTLVTVSA
VL: DVLMTQTPLSLPVSLGDQASISCRSSQTIVHSNGDTYLEWYLQKPGQSPNLLIYKVSNRFSGVPDRFSGSGSGTDFTLKISRVEAEDLGVYYCFQGSHVPPTFGGGTTLEIK
notes: chimeric; also called Mouse KCD119
Kd [1]: 35.8 pM
Kd [2]: 370 pM and 860 pM
Kd [3]: 280 pM and 560 pM
Kd [4]: 700 pM and 1100 pM
CFD Enzymatic activity (% of Neg Ctrl) [5]: 15.7 % of Neg Ctrl

B2: KCD119 TAF (antibody, V domains shown)
VH: EVQLVESGGGLVQPGGSLRLSCAASGYTFTDYYMNWVRQAPGKGLEWIGDINPNTGDTSYNADFKRRFTFSLDTSKSTAYLQMNSLRAEDTAVYYCTREGPSFAYWGQGTLVTVSS
VL: DIQLTQSPSSLSASVGDRVTITCRSSQTIVHSNGDTYLEWYQQKPGKAPNLLIYKVSNRFSGVPSRFSGSGSGTDFTLTISSLQPEDFATYYCFQGSHVPPTFGQGTKVEIK
% no ab control, CFD enzymatic activity on Z-L-Lys-SBzl [6]: 19.6 % no ab control
Vmax (OD/sec), CFD enzymatic activity on Z-L-Lys-SBzl [6]: 0.408 OD/sec

B3: 34I54I59D84S / 54G101V (antibody, V domains shown)
VH: EVQLVESGGGLVQPGGSLRLSCAASGYTFTDYYINWVRQAPGKGLEWIGDINPITGDTDYNADFKRRFTFSLDTSKSTAYLQMSSLRAEDTAVYYCTREGPSFAYWGQGTLVTVSS
VL: DIQLTQSPSSLSASVGDRVTITCRSSQTIVHSNGDTYLEWYQQKPGKAPNLLIGKVSNRFSGVPSRFSGSGSGTDFTLTISSLQPEDFATYYCFQGSHVPVTFGQGTKVEIK
notes: also called 34I54I59D845 / 54G101V
Kd [7]: 6.83 pM
koff [7]: 5.18e-05 s⁻¹
kon [7]: 7.59e+06 M⁻¹ s⁻¹
Kd [8]: 7.74 pM
koff [8]: 0.000112 s⁻¹
kon [8]: 1.45e+07 M⁻¹ s⁻¹
Kd [9]: 6.83 pM
koff [9]: 5.18e-05 s⁻¹
kon [9]: 7.59e+06 M⁻¹ s⁻¹
Kd [10]: 7.74 pM
koff [10]: 0.000112 s⁻¹
kon [10]: 1.45e+07 M⁻¹ s⁻¹

B4: 31S34I54I59D / 54R101V (antibody, V domains shown)
VH: EVQLVESGGGLVQPGGSLRLSCAASGYTFTSYYINWVRQAPGKGLEWIGDINPITGDTDYNADFKRRFTFSLDTSKSTAYLQMNSLRAEDTAVYYCTREGPSFAYWGQGTLVTVSS
VL: DIQLTQSPSSLSASVGDRVTITCRSSQTIVHSNGDTYLEWYQQKPGKAPNLLIRKVSNRFSGVPSRFSGSGSGTDFTLTISSLQPEDFATYYCFQGSHVPVTFGQGTKVEIKR
notes: KCD119 TAF variant
Kd [11]: 9.61 pM
koff [11]: 0.000237 s⁻¹
kon [11]: 2.46e+07 M⁻¹ s⁻¹
Kd [9]: 7.6 pM and 5.96 pM
koff [9]: 0.000106 s⁻¹ and 7.84e-05 s⁻¹
kon [9]: 1.39e+07 M⁻¹ s⁻¹ and 1.32e+07 M⁻¹ s⁻¹
Kd [12]: 5.96 pM
koff [12]: 7.84e-05 s⁻¹
kon [12]: 1.32e+07 M⁻¹ s⁻¹
Kd [10]: 5.83 pM and 9.61 pM
koff [10]: 0.000157 s⁻¹ and 0.000237 s⁻¹
kon [10]: 2.69e+07 M⁻¹ s⁻¹ and 2.46e+07 M⁻¹ s⁻¹

B5: 34I54I59D / 54R101V (antibody, V domains shown)
VH: EVQLVESGGGLVQPGGSLRLSCAASGYTFTDYYINWVRQAPGKGLEWIGDINPITGDTDYNADFKRRFTFSLDTSKSTAYLQMNSLRAEDTAVYYCTREGPSFAYWGQGTLVTVSS
VL: DIQLTQSPSSLSASVGDRVTITCRSSQTIVHSNGDTYLEWYQQKPGKAPNLLIRKVSNRFSGVPSRFSGSGSGTDFTLTISSLQPEDFATYYCFQGSHVPVTFGQGTKVEIKR
notes: KCD119 TAF variant
Kd [11]: 8.08 pM
koff [11]: 0.000264 s⁻¹
kon [11]: 3.27e+07 M⁻¹ s⁻¹
Kd [9]: 5.62 pM
koff [9]: 0.000101 s⁻¹
kon [9]: 1.8e+07 M⁻¹ s⁻¹
Kd [12]: 5.62 pM
koff [12]: 0.000101 s⁻¹
kon [12]: 1.8e+07 M⁻¹ s⁻¹
Kd [10]: 8.08 pM
koff [10]: 0.000264 s⁻¹
kon [10]: 3.27e+07 M⁻¹ s⁻¹

B6: 54I59D / 54R101V (antibody, V domains shown)
VH: EVQLVESGGGLVQPGGSLRLSCAASGYTFTDYYMNWVRQAPGKGLEWIGDINPITGDTDYNADFKRRFTFSLDTSKSTAYLQMNSLRAEDTAVYYCTREGPSFAYWGQGTLVTVSS
VL: DIQLTQSPSSLSASVGDRVTITCRSSQTIVHSNGDTYLEWYQQKPGKAPNLLIRKVSNRFSGVPSRFSGSGSGTDFTLTISSLQPEDFATYYCFQGSHVPVTFGQGTKVEIKR
notes: KCD119 TAF variant
Kd [11]: 6.63 pM
koff [11]: 0.000205 s⁻¹
kon [11]: 3.09e+07 M⁻¹ s⁻¹
Kd [9]: 6.42 pM and 2.94 pM and 5.72 pM and 5.23 pM
koff [9]: 7.04e-05 s⁻¹ and 5.95e-05 s⁻¹ and 9.8e-05 s⁻¹ and 9.5e-05 s⁻¹
kon [9]: 1.1e+07 M⁻¹ s⁻¹ and 2.02e+07 M⁻¹ s⁻¹ and 1.71e+07 M⁻¹ s⁻¹ and 1.82e+07 M⁻¹ s⁻¹
Kd [12]: 5.72 pM
koff [12]: 9.8e-05 s⁻¹
kon [12]: 1.71e+07 M⁻¹ s⁻¹
Kd [10]: 7.1 pM and 5.43 pM and 6.63 pM and 7.92 pM
koff [10]: 0.000187 s⁻¹ and 0.000257 s⁻¹ and 0.000205 s⁻¹ and 0.0003 s⁻¹
kon [10]: 2.64e+07 M⁻¹ s⁻¹ and 4.74e+07 M⁻¹ s⁻¹ and 3.09e+07 M⁻¹ s⁻¹ and 3.78e+07 M⁻¹ s⁻¹

Reference: patent US20180334496A1 (KODIAK SCIENCES, published 2018)
